Laboratory results published in US10865390B2, “Alcohol dehydrogenase mutant and application thereof in synthesis of diaryl chiral alcohols” (Jiangnan University, priority 2018, dated 2020).
Values joined by “and” are separate entries in the source; they are usually repeats but may differ in a detail not shown here. Equal entries are not always repeated.

How the values were obtained:
Assay type in all cases: biochemical
[1] = Substrate specificity: reduction of prochiral carbonyl compound (Table 2)
Text: The reduction on prochiral carbonyl compounds by the alcohol dehydrogenase mutants obtained in Example 2 was studied, and the studied prochiral carbonyl compounds include (4-chlorophenyl)-(pyridin-2-yl)-methanone (CPMK), phenyl-(pyridin-2-yl)-methanone, (4-chlorophenyl)-(phenyl)-methanone, (4-bromophenyl)-(phenyl)-methanone, (4-fluorophenyl)-(pyridin-2-yl)-methanone, (4-methoxyphenyl)-(phenyl)-methanone, acetophenone, 4-chloroacetophenone and 2-(4-chlorophenyl)acetyl chloride.

[2] = Stereoselectivity analysis of CPMK reduction (chiral liquid chromatography, Table 1); conditions: product CPMA from CPMK
Procedure: (§1) In an embodiment of the present disclosure, the (R)- and (S)-CPMA is chromatographed by taking 100 μL reaction solution, adding 500 μL ethyl acetate, shaking for 1-2 min, centrifuging at 12,000 rpm for 2-5 min, placing a supernatant into a centrifuge tube, and after an organic phase is naturally volatilized completely, adding 500 μL chromatographic pure ethanol for chiral liquid chromatography of a conversion rate and an ee value. The specific chromatographic conditions are as follows: Daicel Chiralcel OB-H (5 μm, 250 mm×4.6 mm) liquid chromatography column, mobile phases are n-hexane: ethanol: ethanolamine (90:10:0.01, v/v/v), the flow rate is 1 mL/min, the column temperature is 30° C., the UV detection wavelength is 254 nm, the injection volume is 10 μL, and the retention time for (R)-CPMA and that for (S)-CPMA are 11.14 min and 12.34 min respectively.
Method for determining optical purity ee:
As: molar concentration of (S)-CPMA obtained by liquid chromatography; and AR: molar concentration of (R)-CPMA obtained by liquid chromatography.
The activity of KpADH at different substrate concentrations and coenzyme concentrations was determined, and a double reciprocal curve was made based on the reciprocal of activity and substrate concentration to calculate kinetic parameters.

[3] = 20 mL biocatalytic system: asymmetric reduction of CPMK
Procedure: as §1
A 20 mL biocatalytic system was established: 100 mM potassium phosphate buffer (pH 7.0), and the alcohol dehydrogenase mutants M6 and M7 obtained in Example 2 as well as wild KpADH 10 g/L, CPMK 100 mM, 200 mM and 500 mM were added (substrate added in batches). […]

B1: M6: alcohol dehydrogenase mutant E214G, S237C, Q136N, S196G, F161V of SEQ ID No. 2 (protein)
chain: MSVLISGASGYIAKHIVRVLLEQNYKVIGTVRSQDKADKLLKQYNNPNLSYEIVPEIANLDAFDDIFKKHGKEIKYVIHAASPVNFGAKDLEKDLVIPAINGTKNMFEAIKKYAPDTVERVVMTASYASIMTPHRNNDPTLTLDEETWNPVTEENAYENVVTAYCASKTFAEKEAWKFVKENSDAVKFKLTTIHPGFVFGPQNFDEDVTKKLNGTCEIINGLLHAPFDTKVEKTHFCQFIDVRDVAKTHVLGFQKDELINQRLLLCNGAFSQQDIVNVFNEDFPELKGQFPPEDKDTDLNKGVTGCKIDNEKTKKLLAFEFTPFHKTIHDTVYQILHKEGRV
modifications: Protein translated from synthetic DNA
[1]; substrate drawing 2
  ee value of product: 6.81%
[1]; substrate drawing 3
  ee value of product: 91.7%
[1]; substrate drawing 5
  ee value of product: 64.2%
[1]; substrate drawing 7
  ee value of product: 95.3%
[1]; substrate drawing 8
  ee value of product: 82.1%
[2]
  ee: 97.8% and 99.8%
[3]; 20 mL biocatalytic system, enzyme 10 g/L, 30° C., pH 7.5
  ee value of final reduction product: 99.5%
[3]; CPMK 100 mM, reaction time 1 h
  Conversion rate: 24.6%
[3]; CPMK 100 mM, reaction time 2 h
  Conversion rate: 54.6%
[3]; CPMK 100 mM, reaction time 3 h
  Conversion rate: 69.4%
[3]; CPMK 100 mM, reaction time 4 h
  Conversion rate: 80.2%
[3]; CPMK 100 mM, reaction time 6 h
  Conversion rate: 95.2%
[3]; CPMK 100 mM, reaction time 8 h
  Conversion rate: 97.2%
[3]; CPMK 100 mM, reaction time 12 h
  Conversion rate: 98.2%
[3]; CPMK 100 mM, reaction time 24 h
  Conversion rate: 99.6%
[3]; CPMK 200 mM, reaction time 1 h
  Conversion rate: 19.1%
[3]; CPMK 200 mM, reaction time 2 h
  Conversion rate: 36.4%
[3]; CPMK 200 mM, reaction time 3 h
  Conversion rate: 52.8%
[3]; CPMK 200 mM, reaction time 4 h
  Conversion rate: 70.6%
[3]; CPMK 200 mM, reaction time 6 h
  Conversion rate: 89.7%
[3]; CPMK 200 mM, reaction time 8 h
  Conversion rate: 92.2%
[3]; CPMK 200 mM, reaction time 12 h
  Conversion rate: 95.4%
[3]; CPMK 200 mM, reaction time 24 h
  Conversion rate: 99.2%
[3]; CPMK 500 mM, reaction time 1 h
  Conversion rate: 12.8%
[3]; CPMK 500 mM, reaction time 2 h
  Conversion rate: 22.1%
[3]; CPMK 500 mM, reaction time 3 h
  Conversion rate: 30.6%
[3]; CPMK 500 mM, reaction time 4 h
  Conversion rate: 65.3%
[3]; CPMK 500 mM, reaction time 6 h
  Conversion rate: 77.9%
[3]; CPMK 500 mM, reaction time 8 h
  Conversion rate: 87.6%
[3]; CPMK 500 mM, reaction time 12 h
  Conversion rate: 90.2%
[3]; CPMK 500 mM, reaction time 24 h
  Conversion rate: 99.5%
[3]; CPMK concentration 200 mM
  time required to achieve a conversion rate close to 99.9%: 24 h

B2: M3: alcohol dehydrogenase mutant E214G, S237C of SEQ ID No. 2 (protein)
chain: MSVLISGASGYIAKHIVRVLLEQNYKVIGTVRSQDKADKLLKQYNNPNLSYEIVPEIANLDAFDDIFKKHGKEIKYVIHAASPVNFGAKDLEKDLVIPAINGTKNMFEAIKKYAPDTVERVVMTASYASIMTPHRQNDPTLTLDEETWNPVTEENAYENVFTAYCASKTFAEKEAWKFVKENSDAVKFKLTTIHPSFVFGPQNFDEDVTKKLNGTCEIINGLLHAPFDTKVEKTHFCQFIDVRDVAKTHVLGFQKDELINQRLLLCNGAFSQQDIVNVFNEDFPELKGQFPPEDKDTDLNKGVTGCKIDNEKTKKLLAFEFTPFHKTIHDTVYQILHKEGRV
modifications: Protein translated from synthetic DNA
[1]; substrate drawing 1 (CPMK)
  ee value of product: 65.4%
[1]; substrate drawing 2
  ee value of product: 36.5%
[1]; substrate drawing 3
  ee value of product: 33.2%
[1]; substrate drawing 4
  ee value of product: 63.3%
[1]; substrate drawing 5
  ee value of product: 45.6%
[1]; substrate drawing 6
  ee value of product: 80.6%
[1]; substrate drawing 7
  ee value of product: 95.3%
[1]; substrate drawing 8
  ee value of product: 88.9%
[1]; substrate drawing 9
  ee value of product: 99.8%
[2]
  ee: 51.8%

B3: M5: alcohol dehydrogenase mutant E214G, S237C, Q136N, S196G of SEQ ID No. 2 (protein)
chain: MSVLISGASGYIAKHIVRVLLEQNYKVIGTVRSQDKADKLLKQYNNPNLSYEIVPEIANLDAFDDIFKKHGKEIKYVIHAASPVNFGAKDLEKDLVIPAINGTKNMFEAIKKYAPDTVERVVMTASYASIMTPHRNNDPTLTLDEETWNPVTEENAYENVFTAYCASKTFAEKEAWKFVKENSDAVKFKLTTIHPGFVFGPQNFDEDVTKKLNGTCEIINGLLHAPFDTKVEKTHFCQFIDVRDVAKTHVLGFQKDELINQRLLLCNGAFSQQDIVNVFNEDFPELKGQFPPEDKDTDLNKGVTGCKIDNEKTKKLLAFEFTPFHKTIHDTVYQILHKEGRV
modifications: Protein translated from synthetic DNA
[1]; substrate drawing 1 (CPMK)
  ee value of product: 87.7%
[1]; substrate drawing 2
  ee value of product: 15.5%
[1]; substrate drawing 3
  ee value of product: 62.0%
[1]; substrate drawing 4
  ee value of product: 70.9%
[1]; substrate drawing 5
  ee value of product: 59.5%
[1]; substrate drawing 6
  ee value of product: 81.7%
[1]; substrate drawing 7
  ee value of product: 95.6%
[1]; substrate drawing 8
  ee value of product: 49.1%
[1]; substrate drawing 9
  ee value of product: 99.9%
[2]
  ee: 93.5%

B4: M4: alcohol dehydrogenase mutant E214G, S237C, Q136N of SEQ ID No. 2 (protein)
chain: MSVLISGASGYIAKHIVRVLLEQNYKVIGTVRSQDKADKLLKQYNNPNLSYEIVPEIANLDAFDDIFKKHGKEIKYVIHAASPVNFGAKDLEKDLVIPAINGTKNMFEAIKKYAPDTVERVVMTASYASIMTPHRNNDPTLTLDEETWNPVTEENAYENVFTAYCASKTFAEKEAWKFVKENSDAVKFKLTTIHPSFVFGPQNFDEDVTKKLNGTCEIINGLLHAPFDTKVEKTHFCQFIDVRDVAKTHVLGFQKDELINQRLLLCNGAFSQQDIVNVFNEDFPELKGQFPPEDKDTDLNKGVTGCKIDNEKTKKLLAFEFTPFHKTIHDTVYQILHKEGRV
modifications: Protein translated from synthetic DNA
[1]; substrate drawing 1 (CPMK)
  ee value of product: 80.6%
[1]; substrate drawing 2
  ee value of product: 20.7%
[1]; substrate drawing 3
  ee value of product: 38.6%
[1]; substrate drawing 4
  ee value of product: 66.5%
[1]; substrate drawing 5
  ee value of product: 49.1%
[1]; substrate drawing 6
  ee value of product: 82.6%
[1]; substrate drawing 7
  ee value of product: 91.5%
[1]; substrate drawing 8
  ee value of product: 57.7%
[1]; substrate drawing 9
  ee value of product: 99.3%
[2]
  ee: 88.0%

B5: M1: alcohol dehydrogenase mutant: glycine for glutamic acid at position 214 (E214G) of SEQ ID No. 2 (protein)
chain: MSVLISGASGYIAKHIVRVLLEQNYKVIGTVRSQDKADKLLKQYNNPNLSYEIVPEIANLDAFDDIFKKHGKEIKYVIHAASPVNFGAKDLEKDLVIPAINGTKNMFEAIKKYAPDTVERVVMTASYASIMTPHRQNDPTLTLDEETWNPVTEENAYENVFTAYCASKTFAEKEAWKFVKENSDAVKFKLTTIHPSFVFGPQNFDEDVTKKLNGTCEIINGLLHAPFDTKVEKTHFSQFIDVRDVAKTHVLGFQKDELINQRLLLCNGAFSQQDIVNVFNEDFPELKGQFPPEDKDTDLNKGVTGCKIDNEKTKKLLAFEFTPFHKTIHDTVYQILHKEGRV
modifications: Protein translated from synthetic DNA
[1]; substrate drawing 1 (CPMK)
  ee value of product: 24.2%
[1]; substrate drawing 2
  ee value of product: 41.0%
[1]; substrate drawing 3
  ee value of product: 63.2%
[1]; substrate drawing 4
  ee value of product: 49.3%
[1]; substrate drawing 5
  ee value of product: 7.51%
[1]; substrate drawing 6
  ee value of product: 42.7%
[1]; substrate drawing 7
  ee value of product: 68.5%
[1]; substrate drawing 8
  ee value of product: 86.3%
[1]; substrate drawing 9
  ee value of product: 94.5%
[2]
  ee: 3.29%
